According to paper PMC1853097, “The high-resolution NMR structure of the R21A Spc-SH3:P41 complex: Understanding the determinants of binding affinity by comparison with Abl-SH3” (BMC Structural Biology, 2007):
Read-outs that look alike come from different tables or passages of the source.

What was measured:
p41 decapeptide [1] = test: ITC (quoted from reference 16, Palencia et al. 2004); settings: 25 °C (Table 1 title), not stated ('under similar conditions'), cited from earlier work; for Kb: scale: 10^3 M^-1
p41 decapeptide [2] = test: ITC (Microcal MCS); settings: 25 °C, added salt not given, 20 mM buffer only, Three buffers of different ionisation heat at each pH, each 20 mM. At pH 7.0: phosphate, hepes and imidazole (named in F); for Kb: scale: 10^3 M^-1
[3] = molecular target: R21A mutant of the α-spectrin SH3 domain (R21A Spc-SH3); test: ITC titration of R21A Spc-SH3 with p41; format: binding, chicken; settings: 25°C, global fit of three isotherms, error = 95% confidence interval
Method: (§1) The binding between the p41 decapeptide and the R21A Spc-SH3 mutant domain was studied by a combination of isothermal titration calorimetry (ITC) and differential scanning calorimetry (DSC) experiments. ITC experiments were performed at 25°C at both pH 3.0 and 7.0, using several buffers at a concentration of 20 mM. Similar ITC experiments were made with the WT Spc-SH3 domain for comparison. […] The contribution of protonation/deprotonation processes to the binding enthalpy change, was estimated using three buffers differing in their ionization heats (Figure 1B).
(§2) ITC experiments were performed at 25°C in a high-precision MCS titration calorimeter (Microcal Inc., Northampton, MA). Prior to the experiments the protein was extensively dialyzed at 4°C against the appropriate buffer. The solutions of p41 peptide were prepared by dissolving the lyophilized material directly into the buffer and subsequently adjusting the pH of the solution. All buffers and solutions were filtered and degassed and equilibrated to the working temperature prior to each experiment. […] The binding constant, Kb, and the enthalpy change of binding, ΔHb, were determined by global fitting of the three binding isotherms measured in different buffers, using a model of binding to a single set of identical sites, according to the equation: […]

[4] = molecular target: WT α-spectrin SH3 domain (WT Spc-SH3); test: ITC titration of WT Spc-SH3 with p41; format: binding, chicken; design: unit not given here; settings: 25°C, global fit of three isotherms, error = 95% confidence interval
Method: as §1, §2

[5] = system: WT α-spectrin SH3 domain (WT Spc-SH3); settings: Spc-SH3 relative to Abl-SH3; cited from earlier work
From the text: Background SH3 domains are small protein modules of 60–85 amino acids that bind to short proline-rich sequences with moderate-to-low affinity and specificity. Interactions with SH3 domains play a crucial role in regulation of many cellular processes (some are related to cancer and AIDS) and have thus been interesting targets in drug design. The decapeptide APSYSPPPPP (p41) binds with relatively high affinity to the SH3 domain of the Abl tyrosine kinase (Abl-SH3), while it has a 100 times lower affinity for the α-spectrin SH3 domain (Spc-SH3). Results Here we present the high-resolution structu ... || Here we present the solution structure of the R21A mutant of the α-spectrin SH3 domain (Spc-SH3), both in its free form and bound to the decapeptide APSYSPPPPP (p41). We also show a complete thermodynamic characterization of the SH3-p41 interaction by calorimetric methods, together with an analysis of its effect upon the conformational dynamics of the SH3 domain using amide hydrogen-deuterium exchange (HX). The p41 peptide was initially designed as a high-affinity and high-specificity ligand for the Abl-SH3 domain [6] and the crystal structure of the complex was subsequently determined [[12] ...

[6] = molecular target: SH3 domain of the Abl tyrosine kinase (Abl-SH3); settings: cited from earlier work; for Kb (binding constant): ITC, 25°C
From the text: The affinities are much lower than that of the Abl-SH3 domain for p41 under similar conditions, which is in the range of 2 × 10^5 – 4 × 10^5 M^-1 [16]. In all cases the binding is driven by a large and favourable enthalpy change, partially compensated by an unfavourable entropy change. A similar thermodynamic signature is usually observed for the binding of proline-rich peptides to other SH3 domains. The very small variation of the binding enthalpies with the ionization enthalpy of the buffers ... || We have performed a global analysis of the ΔCpapp MathType@MTEF@5@5@+=feaafiart1ev1aaatCvAUfKttLearuWrP9MDH5MBPbIqV92AaeXatLxBI9gBaebbnrfifHhDYfgasaacH8akY=wiFfYdH8Gipec8Eeeu0xXdbba9frFj0=OqFfea0dXdd9vqai=hGuQ8kuc9pgc9s8qqaq=dirpe0xb9q8qiLsFr0=vr0=vr0dc8meaabaqaciaacaGaaeqabaqabeGadaaakeaacqqHuoarcqWGdbWqdaqhaaWcbaGaemiCaahabaGaemyyaeMaemiCaaNaemiCaahaaaaa@34D4@ curves using a simple model in which the protein/ligand binding and protein unfolding equilibria are coupled (Figure 2). This analysis is, with minor modifications, similar to that used previously for the analysis of the interaction be ...

Q: For “Abl tyrosine kinase SH3 domain (Abl-SH3)”, which ΔGb (p41 decapeptide [1]; pH 3.0) is on record?
A: -7.27 kcal/mol

Q: And the Kb (p41 decapeptide [1]; pH 3.0)?
A: 210

Q: And the p (protons per mole of ligand bound) (p41 decapeptide [1]; pH 7.0)?
A: 0.1

Q: What about the ΔGb (p41 decapeptide [1]; pH 7.0) of the same substance?
A: -7.5 kcal/mol

Q: What about the Kb (p41 decapeptide [1]; pH 7.0) of the same substance?
A: 323

Q: What does the source list for “alpha-spectrin SH3 domain (Spc-SH3), wild type”?
A: p (protons per mole of ligand bound) (p41 decapeptide [2]; pH 3.0): -0.07; ΔGb (p41 decapeptide [2]; pH 3.0): -5.14 kcal/mol; Kb (p41 decapeptide [2]; pH 3.0): 5.8; p (protons per mole of ligand bound) (p41 decapeptide [2]; pH 7.0): 0.01; ΔGb (p41 decapeptide [2]; pH 7.0): -5.07 kcal/mol; Kb (p41 decapeptide [2]; pH 7.0): 5.2

Q: With “alpha-spectrin SH3 domain (Spc-SH3), R21A mutant R21A” as the substance, how does the p (protons per mole of ligand bound) (p41 decapeptide [2]; pH 3.0) read?
A: -0.29

Q: And the ΔGb (p41 decapeptide [2]; pH 3.0)?
A: -5.81 kcal/mol

Q: And the Kb (p41 decapeptide [2]; pH 3.0)?
A: 18.2

Q: And the p (protons per mole of ligand bound) (p41 decapeptide [2]; pH 7.0)?
A: 0.06

Q: What about the ΔGb (p41 decapeptide [2]; pH 7.0) of the same substance?
A: -5.81 kcal/mol

Q: And the Kb (p41 decapeptide [2]; pH 7.0)?
A: 18.1

Q: Which “Kb (binding constant)” value ([3]; pH 3.0, 20 mM buffers) does the source give for “APSYSPPPPP [p41, synthetic decapeptide …, both acetylated and methylated in its termini]” here?
A: 18.2 ± 2.0 ×10^-3 M^-1

Q: And the “Kb (binding constant)” value ([3]; pH 7.0, 20 mM buffers (phosphate, hepes, imidazole), single set of identical sites)?
A: 18.1 ± 1.9 ×10^-3 M^-1

Q: What about the “Kb (binding constant)” value ([4]; pH 3.0, 20 mM buffers) of the same substance?
A: 5.8 ± 0.8 ×10^-3

Q: What about the “Kb (binding constant)” value ([4]; pH 7.0, 20 mM buffers) of the same substance?
A: 5.2 ± 1.2 ×10^-3

Q: And the “times lower affinity for Spc-SH3 than for Abl-SH3” value [5]?
A: 100 times

Q: What about the Kb (binding constant) ([6]; pH 3.0) of the same substance?
A: 210000 M⁻¹

Q: What about the Kb (binding constant) ([6]; pH 7.0) of the same substance?
A: 323000 M⁻¹

Q: And the “affinity of the Abl-SH3 domain for p41 (binding constant)” value ([6]; under similar conditions)?
A: 200000 to 400000 M⁻¹
